Paper PMC11790652

Experiments:
[1] = target: P66 G175V (site-directed mutant, B. burgdorferi B31 A3) (Borrelia burgdorferi (strain B31 A3)); assay: native gel or EMSA; BN-PAGE of outer membrane proteins (B-fractions) of the B. burgdorferi strains, immunoblot probed with rabbit polyclonal antibody D8713 against P66
[2] = target: P66 G175V (site-directed mutant, B. burgdorferi B31 A3) (Borrelia burgdorferi (strain B31 A3))
[3] = target: P66 G584R (site-directed mutant, B. burgdorferi B31 A3) (Borrelia burgdorferi (strain B31 A3)); assay: native gel or EMSA; BN-PAGE of outer membrane proteins (B-fractions) of the B. burgdorferi strains, immunoblot probed with rabbit polyclonal antibody D8713 against P66
[4] = target: P66 G584R (site-directed mutant, B. burgdorferi B31 A3) (Borrelia burgdorferi (strain B31 A3))
[5] = target: P66 T176M (site-directed mutant, B. burgdorferi B31 A3) (Borrelia burgdorferi (strain B31 A3)); assay: native gel or EMSA; BN-PAGE of outer membrane proteins (B-fractions) of the B. burgdorferi strains, immunoblot probed with rabbit polyclonal antibody D8713 against P66
[6] = target: P66 T176M (site-directed mutant, B. burgdorferi B31 A3) (Borrelia burgdorferi (strain B31 A3))

P66 G175V (site-directed mutant, B. burgdorferi B31 A3) (natural protein)
stoichiometry N [1]: 3
black lipid bilayer (BLB) channel conductance of B-fractions in 1 M KCl, 20 mV [2]: < 5 nS

P66 G584R (site-directed mutant, B. burgdorferi B31 A3) (natural protein)
stoichiometry N [3]: 3
black lipid bilayer (BLB) channel conductance of B-fractions in 1 M KCl, 20 mV [4]: < 5 nS

P66 T176M (site-directed mutant, B. burgdorferi B31 A3) (natural protein)
stoichiometry N [5]: 3
black lipid bilayer (BLB) channel conductance of B-fractions in 1 M KCl, 20 mV [6]: < 5 nS
